Experimental data as given in PMC3663837.

How the values were obtained:
[1] = target: SUMO-StPTB1; test: phage ELISA; conditions: parent: est. 0.18; read off a plot
[2] = target: SUMO-StPTB6; test: phage ELISA; conditions: parent: est. 0.19; read off a plot

Substance	response [1]	response [2]
phage-displayed StNova1 subdomain S2 G7del; G11del; G15del; G18del	0.079 λ490	0.079 λ490
phage-displayed StNova1 subdomain S2 G7del; G11del; P13del	0.044 λ490	0.043 λ490
phage-displayed StNova1 subdomain S2 G15del; G18del; P21del	0.11 λ490	0.13 λ490
